# Laboratory results as given in the nanobody polyreactivity screen of Harvey et al. (2022).
# Test: yeast display, Sf9 membrane polyspecificity reagent, FACS + sequencing; frameworks hold sequencing errors
# How it was run: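 Synthetic nanobody libraries on Saccharomyces cerevisiae BJ5465 were galactose-induced for 36–48 hours, stained 1 hour at 4 °C with 10% biotinylated, detergent-solubilized Sf9 membrane reagent and enriched on streptavidin microbeads. FACS then separated cells into low and high (top ~1%) gates by anti-HA (expression) and streptavidin (reagent binding) fluorescence. Genes were colony-PCR amplified, MiSeq 2 × 250 sequenced and CDR-length filtered. A clone's polyreactivity label is that of its gate of origin.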
row,Sequence,polyreactivity (PSR sort gate)
1,QVQLVESGGGLVQAGGSLRLSCAASGFIFSYYAMGWYRQAPGKERELVAAINYSGGRTYYADSVKGRFTISRDYAKNTVYLQMNSLKPEDTAVYYCNAVTFGRRAFDYWGQGTQVTVSS,high polyreactivity
2,QVQLVESGGGLVQAGGSLRLSCAASGFIFSYYAMGWYRQAPGKERELVAAISSSGGTTYADSVKGRFTISRDNAKNTVYLQMNSLKPEDTAVYYCARVQYWFYKPMYYWGQGTQVNVSS,high polyreactivity
3,QVQLVESGGGLVQAGGSLRLSCAASGFIFSYYAMGWYRQAPGKERELVATITSGGSTNYADSVKGRFTISRDNAKNTVYLQMNSLKPEVTAVNYCATRKYRVPRSYDWGQGTQVTVTS,high polyreactivity
4,QVQLVESGGGLVQAGGSLRLSCAASGFIFSYYTMGWYRQAPGKESELVAAISYSGGSTDYADSVKWRFTISRDNAKNTVYLQMNSLKPEDTAVYYCNADYSFWAEPYWEYGYDYWGQGTQVTVSS,low polyreactivity
5,QVQLVESGGGLVQAGGSLRLSCAASGFIFTDNAMGWYRQAPGKERELVAAISKNGGSTYYADSVKGRFTISRDNAKNTVYLQMNSLKPDDTAVYYCNAVRRDSGTYRSPDTTRYDYWGQVTQVTVSS,high polyreactivity
6,QVQLVESGGGLVQAGGSLRLSCAASGFIFTDYAMGWYRQAPGKERELVATISWSGSSTYYADSVKGRFTISRDNAKNTVYLQMNSLKPEDTAVYYCAAEFWYTYPYLVDYWGQGTKVTVSS,low polyreactivity
7,QVQLVESGGGLVQAGGSLRLSCAASGFIFTFYAMGWYRQAPGKEREFVASIDWGDGSTYYADSVKGRFTISRDNAKNTVYLQMNSLKPEDTAVYYCAHDYDGYVWDTEYDYWGQGTQVTVSS,low polyreactivity
8,QVQLVESGGGLVQAGGSLRLSCAASGFIFTGNVMGWYRQAPGKERELVAAITSSGGSTYYADSVKGRFTISRDNAKNTVYLQMNSLKPEDTAVYYCATRYGGRYYWGQGTQVTVSS,high polyreactivity
9,QVQLVESGGGLVQAGGSLRLSCAASGFIFTGYAMGWYRQAPGKERELVAAITRNGGSTYYADSVKGRFTISRDNAKNSVYLQMNSLKPEDTAVYYCAARGNRVSPEYYYWGQGTQVTVSS,high polyreactivity
10,QVQLVESGGGLVQAGGSLRLSCAASGFIFTGYTMGWYRQAPGKERELVAAISYRGGSTYYSDSVKGRFTISRDNAKNTVYLQMNSLKPEDTEVYFCAAESIYFYEYDYWGQGTQVTVSS,high polyreactivity
11,QVQLVESGGGLVQAGGSLRLSCAASGFIFTIYAMGWYRQAPRKERELVAAITWNGGRTYYADSVKGRFTISRDNAKNTVYLQMISLKPEDTAVYYCAARYGRAYDYWGQGTQVTVSS,high polyreactivity
12,QVQLVESGGGLVQAGGSLRLSCAASGFIFTKNTMGWYRQAPGKEREWVAAISRGGSTYYADSVKGRFTISRDNAKNTVYLQMNSLKPEDTAVYYCAALYNSTKYGVYTNGPQAEYDYWGQGTQVTVSS,high polyreactivity
13,QVQLVESGGGLVQAGGSLRLSCAASGFIFTLYAMGWYRQAPGKERELVASIRGSGGNTYYADSVKGRFTISRDNAKNTVYLQMNSLKPEDTAVYYCAARTYRRPYYSWGQGTQVTVSS,high polyreactivity
14,QVQLVESGGGLVQAGGSLRLSCAASGFIFTPYAKGWYRQAPGKERELVAAISSGGSTYADSVKGRFTISRDNAKNTVYLQMNSLKPEDTAVYYCAAYYTGYSTTYYYWGQGTQVSVSS,low polyreactivity
15,QVQLVESGGGLVQAGGSLRLSCAASGFIFTPYAMGWYRQAPGKERELVAAISRSAGSTYYADSVKGRFTISRDNAKNTVYLQMNSLKPEDTAVYYCAADSLTYIAYDYWGQGTQVTVSS,high polyreactivity
16,QVQLVESGGGLVQAGGSLRLSCAASGFIFTQYTMGWYRQAPGKERELVAAISFSDSSTYYADSVKGRFTISRDNAKNTVYLEMNSLKPEDTAVYFCAADYSVTLRIGGYYWFYAFDYWGQGTQVTVSS,low polyreactivity
17,QVQLVESGGGLVQAGGSLRLSCAASGFIFTRYAMGWYRPAPGKERELVAAISASGGSTYYADSVKGRFTISRDNAKNTVYLQMNSLKPEDTAVYYCAAGGSWFRYPPRMDYWGQGTQVTVSS,high polyreactivity
18,QVQLVESGGGLVQAGGSLRLSCAASGFIFTRYAMGWYRQAPGKERELVAAISWIGTSTYYADSVKGRFTISRDNAKNTVYLQMNSLKPEDTAVYYCNALRYSTGRPGFYLGYDYWGQGTQVTVSS,high polyreactivity
19,QVQLVESGGGLVQAGGSLRLSCAASGFIFTRYVMGWYRQAAGKERELVAAISRIGASTYYADSVKGRFTISRDNAKNNFYLQMNCLNPEATAVYYCKVVSGGYCEYDYWGHGTQVTVSS,high polyreactivity
20,QVQLVESGGGLVQAGGSLRLSCAASGFIFTTNAMGWYRQAPGKERELVAAITRSGGSTYADSVKGRFTISRDNAKNTVYLQMNSLKPEDTAVYYCNADWAGVYTSYEYDYWGQGTQVTVSS,low polyreactivity
21,QVQLVESGGGLVQAGGSLRLSCAASGFIFTWYAMGWYRQAPGKEREFVAGISRSGGRTYYADSLKGRFTISRDNAKNTVYLQMNSQKPEDTAVYDCNAVLVGYRPYREFDHWGQGTQVTVSS,high polyreactivity
22,QVQLVESGGGLVQAGGSLRLSCAASGFIFTYYAMGWYRQAPGKERELVAAITSGGSTNYADSVKGRFTISRDNAKITVYLQMNSLKPEDTAVYYCASRIYYGRFWYDYWGQGTQVTVSS,high polyreactivity

row,Sequence,polyreactivity (PSR sort gate)
1,QVQLVESGGGLVQAGGSLRLSCAASGFIFTYYAMGWYRQAPGKERELVAVISWSGGTTYYADSVKGRFTISRDNAKNTVYLQMNSLKPEDTAVYYCNADRSLLYSRKIEYDYWGQGTQVTVSS,low polyreactivity
2,QVQLVESGGGLVQAGGSLRLSCAASGFIFVDYAMGWYRQAPGKERELVAAISSSGSTTYADSVKGRFTISRDNAKNIVYLKMNSLKPEDTAVYYCAAGLPRVLKDATFDYWGQGTQVTVSS,low polyreactivity
3,QVQLVESGGGLVQAGGSLRLSCAASGFIFVFNTMGWYRQAPGKERELVAAISVSGDSTYADSVKGRFTISRDNAKNTVYLQMNSLKPEDTAVYYCNAGSTELGWTWELDYWGQGTQVNVSS,high polyreactivity
4,QVQLVESGGGLVQAGGSLRLSCAASGFIFVIYGMGWYRQAPGKERELVAAISRGGSTYADSVKGRFTISRDNAKNTVYLQMNSLKPEDTAVYYCNARLYKRGGFGYYYWGQGTQVTVSS,high polyreactivity
5,QVQLVESGGGLVQAGGSLRLSCAASGFIFVLYTMGWYRQAPGKEREMVASITQSGGSTYYADSVKGRFTISRDNAKNTVYLQMNSLKPEDTAVYYCAAVWAHEWWELDYWGQGTQVTVSS,low polyreactivity
6,QVQLVESGGGLVQAGGSLRLSCAASGFIFVPYTMGWYRQAPGKERELVATINSNGGSTYYADSVKGRFTISRDNAKNTVYLQMNSLKPEDTAVYYCAAYYRWIGGRYTPYYYWGQGTQVTVSS,high polyreactivity
7,QVQLVESGGGLVQAGGSLRLSCAASGFIFVQNTMGWYRQAPGKERELVAAISRGTGRTYYADSVKGRFTISRDNAKNTVYLQMNSLKPDDTAVYYCNVVYPQRYRSREDDYWGQGTQVTVSS,high polyreactivity
8,QVQLVESGGGLVQAGGSLRLSCAASGFIFVRYAMGWYRQAPGKERELVASISGRGSSTYYADSVKGRFTISRDNAKNTVYLQMNSLKPEDTAVYYCAADYYRRIGGYPYDYDYWGQGTQVTVSS,high polyreactivity
9,QVQLVESGGGLVQAGGSLRLSCAASGFIFVRYARGWNRQAPGKERELVASITRSGGSTYYADSVKGRFTISRDNAKNTVYLQMNSLKPEDTAVYYCAASYYRSRGSTYGYWGQGTQVTVSS,high polyreactivity
10,QVQLVESGGGLVQAGGSLRLSCAASGFIFVYNAMGWYRPAPGKERELVAAIDYGGGSTTYADSVKGRFTISRDNAKNTVYLQMNSLKPEDTAVYYCAAYYRYLDDIYEYEYWGQGTQVTVSS,low polyreactivity
11,QVQLVESGGGLVQAGGSLRLSCAASGFIFVYNAMGWYRQAPGKEREFVASITWSGGRTYYADSVKGRFTISRDNAKNTVYLQMNSLKPEDTAVYYCATKYPNSQGRRYDYWGQGTQVTVSS,low polyreactivity
12,QVQLVESGGGLVQAGGSLRLSCAASGFIFVYNSMGWSRPAPGKEREFVASITWSGGRTYYADSVKGRFTISRDNAKNTVYLQMNSLKREVTAVYFCATKYPNSQVRRYDYWGQGTQVTVSS,low polyreactivity
13,QVQLVESGGGLVQAGGSLRLSCAASGFIFVYYAMGWYRQAPGKERELVAAISGHGGRTYYADSVKGRFTISRDNAKNTVYLQMNSLKPEDTAVYYCAALLYWRGYGYNYWGQGTQVTVSS,high polyreactivity
14,QVQLVESGGGLVQAGGSLRLSCAASGFIFVYYAMGWYRQAPGKERELVAAISRASSTSYADSVKGRFTISRDNAKNTVYLQMISLKPEDTAVYYCAAVYYGGFSDYDYWGQGTQVTVSS,low polyreactivity
15,QVQLVESGGGLVQAGGSLRLSCAASGFIFVYYAMGWYRQAPGKERELVAAITWRGGSTNYADSVKGRFTISRDNAKNTVYLQMNSLIPEDTAVYYCAAYSVWGGSYLALDYWGQGSQVTVSS,low polyreactivity
16,QVQLVESGGGLVQAGGSLRLSCAASGFIFVYYVMGWYRQAPGKERELVAAITQSGGSTYYADSVKGRFTISRDNAKNTVYLQMNSLKPEDTAVYYCAAYRRTTGGGYDYWGQGTQVTVSS,high polyreactivity
17,QVQLVESGGGLVQAGGSLRLSCAASGFIFVYYVMGWYRQAPGKERELVAAITQSGGSTYYADSVKGRFTISRDNAKYTVYLQMNSLKPEDTAVYYCAAYRRTTGGGYDYWGQGTQVTVSS,high polyreactivity
18,QVQLVESGGGLVQAGGSLRLSCAASGFIFWANAMGWYRQAPGKERELVAAITWRNGRTYYADSVKGRFTISRDNAKNTVYLQMNSLKPEDTAVYYCAAPGSYARGTGRDYWGQGTQVTVSS,high polyreactivity
19,QVQLVESGGGLVQAGGSLRLSCAASGFIFWAYAMGWYRLAPGKERELVAAITWNGGSTNYADSVKGRFTISRDNAKNTVYLQMNSLKPEDTAVYYCAVSRSLSFRYPGYYWGQGTQVTVSS,low polyreactivity
20,QVQLVESGGGLVQAGGSLRLSCAASGFIFWAYDMGWYRQAPGKERELVAGISKRGGTTYYADSVKGRFTISRDNAKNTVYLQMNSLKPEDTAVYYCAVRLYLEMDYWGQGTQVTVSS,high polyreactivity
21,QVQLVESGGGLVQAGGSLRLSCAASGFIFWDYAMGWYRQAPGKERELVAAISDSGGDTYYADSVKGRFTISRDNSKNTDYLQMNSLKPEDTAVYYCAADVELWVFRGQQYDYWGQGTQVTVSS,low polyreactivity
